Test results reported in US11242370B2, “Neuregulin-4 compounds and methods of use” (Eli Lilly and Company, priority 2019, dated 2022).
Residue numbers refer to the chain shown, from its start. In names and notes the source's numbering stands.

Legend:
[1] = target: T1, HER4 receptor extracellular domain (ECD) (Homo sapiens, UniProt Q15303); assay: HER4/NRG-Fc binding assay (ELISA) for screening NRG4 variants
T1 construct: C-terminal His-tagged HER4 receptor extracellular domain (ECD) construct
T1 sequence (Q15303 26-651 limits assumed): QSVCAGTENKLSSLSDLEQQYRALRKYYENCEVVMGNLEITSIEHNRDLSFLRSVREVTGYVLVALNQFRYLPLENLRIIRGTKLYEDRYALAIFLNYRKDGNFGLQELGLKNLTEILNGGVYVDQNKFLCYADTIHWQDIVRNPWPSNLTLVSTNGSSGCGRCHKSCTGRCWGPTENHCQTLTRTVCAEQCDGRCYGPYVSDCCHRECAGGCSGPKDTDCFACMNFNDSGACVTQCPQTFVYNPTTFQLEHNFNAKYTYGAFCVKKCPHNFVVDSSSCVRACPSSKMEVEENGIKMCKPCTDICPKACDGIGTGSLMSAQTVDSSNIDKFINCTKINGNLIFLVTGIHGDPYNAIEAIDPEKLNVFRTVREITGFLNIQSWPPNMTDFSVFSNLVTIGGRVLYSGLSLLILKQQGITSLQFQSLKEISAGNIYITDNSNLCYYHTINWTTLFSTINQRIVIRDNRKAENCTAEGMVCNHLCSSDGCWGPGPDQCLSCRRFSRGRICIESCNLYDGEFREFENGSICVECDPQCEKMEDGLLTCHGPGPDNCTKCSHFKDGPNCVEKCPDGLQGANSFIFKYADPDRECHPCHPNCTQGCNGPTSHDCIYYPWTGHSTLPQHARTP
Description: A binding assay is utilized to perform high-throughput screening of NRG4 variant Fc fusion proteins to HER4 receptor, to identify affinity-driven variants with the potential to increase receptor activation and signaling. ELISA plates are coated with an anti-His tag antibody at 2 μg/ml in PBS to facilitate the standardized capture of a C-terminal His-tagged HER4 receptor extracellular domain (ECD) construct after blocking the plate with 1% BSA/PBS/0.1% Tween 20 (HER4 ECD at 5 μg/ml). Saturating amounts of unpurified NRG4-Fc variants in expression media (Starting at 10 μg/ml with serial dilutions in 1% BSA/PBS/0.1% Tween 20) are incubated with the captured receptor for 1 hour. After washing, bound variant NRG4-Fc is detected colorimetrically with an anti-human Fc-specific alkaline phosphatase secondary detection reagent to quantitate binding. Incubation times of variant binding to receptor or durations of the subsequent wash steps are varied to further identify binding variants driven by affinity on-rate and off-rate, respectively.

rat HER2/HER3 = target: T2, rat HER2/HER3 (Rattus norvegicus, UniProt Q62799); assay: Rat HER2/HER3 phospho-ERK 1/2 assay, purified proteins, CHO-K1 cells; type: cell-based; conditions: phospho-ERK1/2
T2 construct: expressed in transfected cells
T2 sequence (Q62799 20-1339): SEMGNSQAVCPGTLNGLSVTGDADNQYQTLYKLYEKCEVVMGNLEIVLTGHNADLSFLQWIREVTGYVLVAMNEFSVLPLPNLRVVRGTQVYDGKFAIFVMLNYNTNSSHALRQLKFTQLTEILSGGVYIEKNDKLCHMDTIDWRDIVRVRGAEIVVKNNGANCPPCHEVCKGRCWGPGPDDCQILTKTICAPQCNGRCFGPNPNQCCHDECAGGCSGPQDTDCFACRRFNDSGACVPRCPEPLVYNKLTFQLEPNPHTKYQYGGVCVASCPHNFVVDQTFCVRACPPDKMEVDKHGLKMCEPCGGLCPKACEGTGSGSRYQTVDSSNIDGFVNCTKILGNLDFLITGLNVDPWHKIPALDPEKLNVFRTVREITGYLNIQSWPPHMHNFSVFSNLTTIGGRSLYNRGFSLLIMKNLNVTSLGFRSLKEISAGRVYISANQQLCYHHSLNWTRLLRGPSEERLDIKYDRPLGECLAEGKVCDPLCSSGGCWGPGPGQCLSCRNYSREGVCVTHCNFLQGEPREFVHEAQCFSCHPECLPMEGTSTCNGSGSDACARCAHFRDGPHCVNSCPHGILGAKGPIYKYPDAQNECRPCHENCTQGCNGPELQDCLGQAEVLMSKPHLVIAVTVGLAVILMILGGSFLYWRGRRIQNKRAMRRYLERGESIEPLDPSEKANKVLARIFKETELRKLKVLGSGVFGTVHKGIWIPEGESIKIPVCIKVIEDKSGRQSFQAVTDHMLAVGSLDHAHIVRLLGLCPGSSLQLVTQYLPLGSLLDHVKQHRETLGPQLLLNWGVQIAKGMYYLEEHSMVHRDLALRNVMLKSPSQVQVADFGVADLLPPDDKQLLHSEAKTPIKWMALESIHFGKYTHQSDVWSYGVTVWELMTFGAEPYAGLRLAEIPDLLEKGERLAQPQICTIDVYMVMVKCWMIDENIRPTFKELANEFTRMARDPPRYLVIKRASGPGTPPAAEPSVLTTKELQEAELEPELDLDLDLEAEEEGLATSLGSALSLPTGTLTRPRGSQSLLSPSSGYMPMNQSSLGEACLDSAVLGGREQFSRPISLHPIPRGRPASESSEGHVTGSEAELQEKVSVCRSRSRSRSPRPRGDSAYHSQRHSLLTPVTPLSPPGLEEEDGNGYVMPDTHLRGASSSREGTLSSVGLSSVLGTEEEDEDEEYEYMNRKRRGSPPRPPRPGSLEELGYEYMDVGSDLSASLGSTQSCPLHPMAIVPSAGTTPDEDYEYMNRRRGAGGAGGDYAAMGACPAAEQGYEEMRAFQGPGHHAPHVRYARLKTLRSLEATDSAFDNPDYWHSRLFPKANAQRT
T2 sequence (P06494 23-1257 partner): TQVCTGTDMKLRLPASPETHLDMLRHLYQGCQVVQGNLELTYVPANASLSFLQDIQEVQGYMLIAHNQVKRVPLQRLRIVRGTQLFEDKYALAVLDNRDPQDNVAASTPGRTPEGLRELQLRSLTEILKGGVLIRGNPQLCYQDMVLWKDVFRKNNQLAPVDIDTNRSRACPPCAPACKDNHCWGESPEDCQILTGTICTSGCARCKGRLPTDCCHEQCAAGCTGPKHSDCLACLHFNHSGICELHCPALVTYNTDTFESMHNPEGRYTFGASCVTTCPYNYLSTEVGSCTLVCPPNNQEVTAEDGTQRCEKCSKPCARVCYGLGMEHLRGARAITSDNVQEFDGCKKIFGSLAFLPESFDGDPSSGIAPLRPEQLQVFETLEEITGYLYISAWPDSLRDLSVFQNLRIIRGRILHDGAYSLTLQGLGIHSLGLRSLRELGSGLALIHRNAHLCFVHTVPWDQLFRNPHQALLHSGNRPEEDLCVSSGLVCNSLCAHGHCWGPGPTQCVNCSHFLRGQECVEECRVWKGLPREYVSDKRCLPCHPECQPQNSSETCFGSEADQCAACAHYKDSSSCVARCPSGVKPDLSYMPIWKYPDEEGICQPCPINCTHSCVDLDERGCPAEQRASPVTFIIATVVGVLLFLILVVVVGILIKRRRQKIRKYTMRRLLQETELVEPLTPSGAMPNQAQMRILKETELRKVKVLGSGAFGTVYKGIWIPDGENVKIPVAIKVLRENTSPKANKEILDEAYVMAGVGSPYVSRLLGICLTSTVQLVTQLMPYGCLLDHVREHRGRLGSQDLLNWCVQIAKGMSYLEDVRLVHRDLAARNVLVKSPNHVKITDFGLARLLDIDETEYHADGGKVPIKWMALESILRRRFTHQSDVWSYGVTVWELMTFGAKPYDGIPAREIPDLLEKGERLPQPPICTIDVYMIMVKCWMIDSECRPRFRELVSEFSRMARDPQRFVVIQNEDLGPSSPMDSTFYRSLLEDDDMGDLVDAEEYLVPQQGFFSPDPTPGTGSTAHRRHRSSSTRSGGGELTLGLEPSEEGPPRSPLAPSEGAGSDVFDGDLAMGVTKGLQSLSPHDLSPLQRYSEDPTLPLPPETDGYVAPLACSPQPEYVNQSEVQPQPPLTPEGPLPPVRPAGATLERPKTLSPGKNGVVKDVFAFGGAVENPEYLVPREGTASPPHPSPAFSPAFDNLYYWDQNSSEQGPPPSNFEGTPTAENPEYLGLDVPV
Description: A cell based assay utilizing CHO-K1 cells overexpressing human or rat HER receptors is used to determine activity of NRG4 compounds. CHO-K1 cells (ATCC) are grown in DMEM-F12 3:1 with 5% FBS with 20 mM HEPES, 40 μg/mL L-Proline, lx antibiotics and were split 1:5 every 2-3 days with TripLE Express (Gibco). Cells are transfected with plasmid DNA encoding HER receptors in pairs (hHER2-3, hHER2-4, rHER2-3 and rHER2-4) with Fugene 6 (Promega) according to the manufacturer's instructions. […] Transfected cells are selected with Puromycin (12 ug/ml) and Hygromycin (1 mg/ml) for 3-4 weeks and clonal lines are obtained by limited dilution cloning into 96 well plates. Clonal lines are selected by appropriate gene expression of HER2, HER3 or HER4 by Taqman method. Lines with appropriate receptor expression are confirmed by NRG1 induced phospho-ERK 1/2 responses. Clones are grown up, harvested, aliquoted into cryovials and then frozen under liquid nitrogen for long-term storage.
A phospho-ERK1/2 activity assay is utilized with CHO-K1 cells overexpressing human or rat HER receptors to determine potencies and selectivity of purified NRG4 compounds. CHO-K1 cell lines expressing the human or rat HER receptors are cultured with selection medium (DMEM-F12 3:1 with 5% FBS with 20 mM HEPES, 40 μg/mL L-Proline, 1× antibiotics, 12 μg/mL puromycin, 1 mg/mL Hygromycin B). On Day −1 (the day before phospho-ERK1/2 assay), cells are washed once with PBS, detached with enzyme free cell dissociation solution (GIBCO cat #13151-014), and resuspended in plating medium (DMEM-F12 3:1 with 20 mM HEPES, lx antibiotics, 0.2% FBS). Cells are plated in a 96-well Poly-D-Lysine coated plate (BD cat #354640) at 10,000 cells per 0.1 mL per well. […] Then 7.5 μL donor beads are added and the plate is covered with aluminum foil and incubated at room temperature for 2 hours on plate shaker with 350 rpm agitation or at 4° C. for overnight (warm up plate at room temperature for 2 h before reading). Alpha signal data are obtained on an Envision instrument (Alpha Technology-compatible plate reader). […]

[2] = Dose # 1: Example 1 10.65, WT NRG1 10, WT NRG4 17 μg/mL
[3] = Dose # 2: Example 1 5.325, WT NRG1 5, WT NRG4 8.5 μg/mL
[4] = Dose # 3: Example 1 2.6625, WT NRG1 2.5, WT NRG4 4.25 μg/mL
[5] = Dose # 4: Example 1 1.33125, WT NRG1 1.25, WT NRG4 2.125 μg/mL
[6] = Dose # 5: Example 1 0.665625, WT NRG1 0.625, WT NRG4 1.0625 μg/mL
[7] = Dose # 6: Example 1 0.332813, WT NRG1 0.3125, WT NRG4 0.53125 μg/mL
[8] = Dose # 7: Example 1 0.166406, WT NRG1 0.15625, WT NRG4 0.265625 μg/mL
[9] = Dose # 8: Example 1 0.083203, WT NRG1 0.078125, WT NRG4 0.132813 μg/mL
[10] = Dose # 9: Example 1 0.041602, WT NRG1 0.039063, WT NRG4 0.066406 μg/mL
[11] = Dose # 10: Example 1 0.020801, WT NRG1 0.019531, WT NRG4 0.033203 μg/mL
[12] = Dose # 11: Example 1 0.0104, WT NRG1 0.009766, WT NRG4 0.016602 μg/mL
[13] = Dose # 12: Example 1 0.0052, WT NRG1 0.004883, WT NRG4 0.008301 μg/mL

Molecule: WT NRG1: wild type human NRG1; native peptide purchased from Reprokine in Tables 7-9; comparator in the screening assays of Tables 4 and 6
- O.D. 405, binding to HER4 extracellular domain [1, 2]: 1.501
- O.D. 405, binding to HER4 extracellular domain [1, 3]: 1.439
- O.D. 405, binding to HER4 extracellular domain [1, 4]: 1.399
- O.D. 405, binding to HER4 extracellular domain [1, 5]: 1.31
- O.D. 405, binding to HER4 extracellular domain [1, 6]: 1.27
- O.D. 405, binding to HER4 extracellular domain [1, 7]: 1.022
- O.D. 405, binding to HER4 extracellular domain [1, 8]: 0.8
- O.D. 405, binding to HER4 extracellular domain [1, 9]: 0.514
- O.D. 405, binding to HER4 extracellular domain [1, 10]: 0.316
- O.D. 405, binding to HER4 extracellular domain [1, 11]: 0.179
- O.D. 405, binding to HER4 extracellular domain [1, 12]: 0.114
- O.D. 405, binding to HER4 extracellular domain [1, 13]: 0.084
- EC50 (rat HER2/HER3): 32 ± 14 nM

Molecule: WT NRG4: wild type human NRG4 (SEQ ID NO:1); parental hFcNRG4 in screening (Tables 4-6), native peptide from Reprokine in Tables 7-9 (DHEEPCGPSHKSFCLNGGLCYVIPTIPSPFCRCVENYTGARCEEVFL; listed as Homo sapiens)
- O.D. 405, binding to HER4 extracellular domain [1, 2]: 0.651
- O.D. 405, binding to HER4 extracellular domain [1, 3]: 0.597
- O.D. 405, binding to HER4 extracellular domain [1, 4]: 0.485
- O.D. 405, binding to HER4 extracellular domain [1, 5]: 0.347
- O.D. 405, binding to HER4 extracellular domain [1, 6]: 0.224
- O.D. 405, binding to HER4 extracellular domain [1, 7]: 0.154
- O.D. 405, binding to HER4 extracellular domain [1, 8]: 0.111
- O.D. 405, binding to HER4 extracellular domain [1, 9]: 0.088
- O.D. 405, binding to HER4 extracellular domain [1, 10]: 0.071
- O.D. 405, binding to HER4 extracellular domain [1, 11]: 0.07
- O.D. 405, binding to HER4 extracellular domain [1, 12]: 0.066
- O.D. 405, binding to HER4 extracellular domain [1, 13]: 0.066

B1: Example 10: NRG4 D1G/V22Q/E44K, (GGGGS)3 linker, SEQ ID NO: 19, fused to IgG Fc dimer SEQ ID NO: 6 and 7 (protein)
chain 1: GGGGSGGGGSGGGGSGHEEPCGPSHKSFCLNGGLCYQIPTIPSPFCRCVENYTGARCEKVFL
chain 2: ECPPCPAPPVAGPSVFLFPPKPKDTLMISRTPEVTCVVVDVSHEDPEVQFNWYVDGVEVHNAKTKPREEQFNSTFRVVSVLTVVHQDWLNGKEYKCKVSNKGLPAPIEKTISKTKGQPREPQVYTLPPSREEMTKNQVSLWCLVKGFYPSDIAVEWESNGQPENNYKTTPPVLDSDGSFFLYSKLTVDKSRWQQGNVFSCSVMHEALHNHYTQKSLSLSPG
chain 3: B1 chain 2 with W141S, L143A, Y182V
- EC50 (rat HER2/HER3): > 100 nM
